{
  "source": "paper PMC10834429",
  "about": "“HRDE-2 drives small RNA specificity for the nuclear Argonaute protein HRDE-1” (Nature Communications, 2024)",
  "binders": {"B1": {"name": "HRDE-2::2xTy1::GFP (natural protein, C. elegans, UniProt Q22058 1-305, looked up)", "chain": "MSQNSDTFDSGLQMEVHKMAEADNSSVQQKFDAIRDYIGRKETTIILCEHDDSRKIKLTLNKQRMESSMFLTEMPDGGIQEKTKFHRNGLAVCSYNAFDEVDLPLADSYIFYGLPSNVEAFPRMLHGIEKSAHKENKIVFIDIVVSILEKIQIKVVSFELYNRKCTVPTWVAELVITYCAPIEEQQQRIEEIRRTRASVPVAISDAANGSAEMVPSNTTGSSGSPMSTAPVPAAKKEKVQYESIRQIRPNAQGRYFVPARMINMDIEMSNDEYSPDESENDENEYDYENAARYDDGYDEGHEYCQ", "notes": "HRDE-2 (HRDE-2/ENRI-3), C. elegans, tagged in the worm strain; Tag ends are read from the strain notation HRDE-2::2xTy1::GFP; also called HRDE-2/ENRI-3; source: C. elegans strain hrde-2/enri-3(tag1660[hrde-2/enri-3::2xTy1::GFP]), adult animals, in lysate; not shown: 2xTy1, C-terminal, kept; GFP, C-terminal, kept"}},
  "key": {"[1]": {"target": "T1, GFP::3xFLAG::HRDE-1 (C. elegans, UniProt Q09249 1-1032)", "T1 construct": "HRDE-1/WAGO-9, germline nuclear Argonaute, C. elegans, tagged in the worm strain; Tag ends are read from the strain notation GFP::3xFLAG::HRDE-1; also called HRDE-1/WAGO-9; wild-type HRDE-1; source: C. elegans strain hrde-1(tor125[GFP::3xFLAG::hrde-1]), adult animals, in lysate; not shown: GFP, N-terminal, kept; 3xFLAG, N-terminal, kept", "T1 sequence (looked up)": "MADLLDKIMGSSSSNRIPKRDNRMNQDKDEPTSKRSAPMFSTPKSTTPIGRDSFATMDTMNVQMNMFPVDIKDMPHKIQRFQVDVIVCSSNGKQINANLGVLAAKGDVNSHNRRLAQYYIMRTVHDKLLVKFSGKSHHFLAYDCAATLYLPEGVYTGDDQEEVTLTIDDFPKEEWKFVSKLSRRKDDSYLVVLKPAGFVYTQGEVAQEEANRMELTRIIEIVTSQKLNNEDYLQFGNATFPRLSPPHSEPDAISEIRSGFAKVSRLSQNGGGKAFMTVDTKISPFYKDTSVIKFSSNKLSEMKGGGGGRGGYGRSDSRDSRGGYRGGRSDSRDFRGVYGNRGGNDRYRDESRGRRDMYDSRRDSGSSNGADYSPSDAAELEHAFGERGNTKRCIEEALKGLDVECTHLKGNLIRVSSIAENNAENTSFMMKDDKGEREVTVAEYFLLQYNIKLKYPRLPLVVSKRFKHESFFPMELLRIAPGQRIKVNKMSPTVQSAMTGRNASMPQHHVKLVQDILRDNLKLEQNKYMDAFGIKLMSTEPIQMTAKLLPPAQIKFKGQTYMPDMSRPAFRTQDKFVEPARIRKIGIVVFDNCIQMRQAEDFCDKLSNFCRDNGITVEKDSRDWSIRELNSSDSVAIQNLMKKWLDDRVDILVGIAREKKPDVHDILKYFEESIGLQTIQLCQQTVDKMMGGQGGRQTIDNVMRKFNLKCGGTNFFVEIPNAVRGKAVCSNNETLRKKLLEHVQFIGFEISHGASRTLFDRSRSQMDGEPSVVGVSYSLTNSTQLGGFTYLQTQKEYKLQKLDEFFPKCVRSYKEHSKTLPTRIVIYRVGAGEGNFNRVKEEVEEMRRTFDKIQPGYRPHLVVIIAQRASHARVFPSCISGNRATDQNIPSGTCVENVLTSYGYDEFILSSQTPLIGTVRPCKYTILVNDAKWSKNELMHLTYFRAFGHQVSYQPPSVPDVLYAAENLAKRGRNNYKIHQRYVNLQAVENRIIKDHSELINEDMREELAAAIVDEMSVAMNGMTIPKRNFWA", "test": "co-IP; lysate of adult animals; anti-FLAG beads precipitate GFP::3xFLAG::HRDE-1, HRDE-2::2xTy1::GFP detected with anti-Ty1; wild-type, mut-2 mutant and hrde-1(HK-AA) backgrounds; band intensities by ImageJ normalized to HRDE-1 immunoprecipitated and to wild-type", "details": "partners not purified"}, "[2]": {"target": "T2, GFP::3xFLAG::HRDE-1(HK-AA) (C. elegans, UniProt Q09249 1-1032, H664A | K668A)", "T2 construct": "Tag ends are read from the strain notation; Repair template is in Supplementary Data 3; source: C. elegans strain hrde-1(cmp309[HK-AA]) made in hrde-1(tor125[GFP::3xFLAG::hrde-1]), adult animals, in lysate; not shown: GFP, N-terminal, kept; 3xFLAG, N-terminal, kept", "T2 sequence (looked up)": "T1 sequence (looked up) with H664A, K668A", "test": "co-IP; lysate of adult animals; anti-FLAG beads precipitate GFP::3xFLAG::HRDE-1, HRDE-2::2xTy1::GFP detected with anti-Ty1; wild-type, mut-2 mutant and hrde-1(HK-AA) backgrounds; band intensities by ImageJ normalized to HRDE-1 immunoprecipitated and to wild-type", "details": "partners not purified"}},
  "note": "Numbering of substitutions follows the chain as printed.",
  "data": [
    {"binder": "B1", "values": [
      {"measurement": "fold change of co-precipitated HRDE-2 in the mut-2 mutant against wild-type", "setting": "[1]", "result": "~2.18", "unit": "fold"},
      {"measurement": "fold change of co-precipitated HRDE-2 against wild-type HRDE-1", "setting": "[2]", "result": "~3.3", "unit": "fold"}
    ]}
  ]
}
